Paper PMC8748612, “Maximizing response to intratumoral immunotherapy in mice by tuning local retention” (Nature Communications, 2022)
Residue numbers refer to the chain shown, from its start. Names and notes keep the numbering of the source.

Key:
[1] = biological target: Collagen I (Gibco), coated on 96-well plates (UniProt P02454); assay: ELISA; Collagen I (Gibco) coated 96-well plates; LAIR-fusion proteins in PBSTA (PBS, 0.1% BSA, 0.05% Tween-20) for 4 h at room temperature; detected with HRP-conjugated polyclonal anti-6xHis
Chain of Collagen I (Gibco), coated on 96-well plates (UniProt P02454) (P02454 152-1207, chain 1 of 2): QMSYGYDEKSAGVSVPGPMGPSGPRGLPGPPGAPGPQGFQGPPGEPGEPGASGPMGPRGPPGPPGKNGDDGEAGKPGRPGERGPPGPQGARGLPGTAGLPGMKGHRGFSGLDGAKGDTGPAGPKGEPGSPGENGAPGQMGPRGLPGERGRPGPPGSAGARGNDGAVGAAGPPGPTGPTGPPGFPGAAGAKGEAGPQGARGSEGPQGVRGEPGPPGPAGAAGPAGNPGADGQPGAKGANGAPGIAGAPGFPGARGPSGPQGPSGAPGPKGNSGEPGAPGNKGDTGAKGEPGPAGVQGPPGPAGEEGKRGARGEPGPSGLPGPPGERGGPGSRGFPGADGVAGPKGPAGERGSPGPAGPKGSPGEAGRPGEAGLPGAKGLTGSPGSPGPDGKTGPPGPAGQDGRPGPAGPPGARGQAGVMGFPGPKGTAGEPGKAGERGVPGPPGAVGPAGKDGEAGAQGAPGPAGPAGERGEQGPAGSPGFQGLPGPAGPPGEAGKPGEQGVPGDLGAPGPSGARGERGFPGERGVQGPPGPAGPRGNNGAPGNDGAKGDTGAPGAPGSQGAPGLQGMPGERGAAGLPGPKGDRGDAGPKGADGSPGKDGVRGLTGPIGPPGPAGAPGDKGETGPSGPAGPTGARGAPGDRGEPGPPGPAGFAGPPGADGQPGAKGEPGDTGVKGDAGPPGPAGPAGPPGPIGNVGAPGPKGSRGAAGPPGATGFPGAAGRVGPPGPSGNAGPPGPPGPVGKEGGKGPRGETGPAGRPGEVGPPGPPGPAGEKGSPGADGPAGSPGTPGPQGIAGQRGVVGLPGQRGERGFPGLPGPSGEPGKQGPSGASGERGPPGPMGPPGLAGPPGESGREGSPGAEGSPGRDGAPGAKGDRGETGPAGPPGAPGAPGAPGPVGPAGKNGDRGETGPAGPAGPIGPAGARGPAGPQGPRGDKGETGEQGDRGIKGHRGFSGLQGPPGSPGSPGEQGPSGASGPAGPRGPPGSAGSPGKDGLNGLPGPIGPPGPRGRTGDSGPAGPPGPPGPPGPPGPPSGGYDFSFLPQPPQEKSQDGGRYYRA
Chain of Collagen I (Gibco), coated on 96-well plates (UniProt P02454) (P02466 86-1125, chain 2 of 2, further chain): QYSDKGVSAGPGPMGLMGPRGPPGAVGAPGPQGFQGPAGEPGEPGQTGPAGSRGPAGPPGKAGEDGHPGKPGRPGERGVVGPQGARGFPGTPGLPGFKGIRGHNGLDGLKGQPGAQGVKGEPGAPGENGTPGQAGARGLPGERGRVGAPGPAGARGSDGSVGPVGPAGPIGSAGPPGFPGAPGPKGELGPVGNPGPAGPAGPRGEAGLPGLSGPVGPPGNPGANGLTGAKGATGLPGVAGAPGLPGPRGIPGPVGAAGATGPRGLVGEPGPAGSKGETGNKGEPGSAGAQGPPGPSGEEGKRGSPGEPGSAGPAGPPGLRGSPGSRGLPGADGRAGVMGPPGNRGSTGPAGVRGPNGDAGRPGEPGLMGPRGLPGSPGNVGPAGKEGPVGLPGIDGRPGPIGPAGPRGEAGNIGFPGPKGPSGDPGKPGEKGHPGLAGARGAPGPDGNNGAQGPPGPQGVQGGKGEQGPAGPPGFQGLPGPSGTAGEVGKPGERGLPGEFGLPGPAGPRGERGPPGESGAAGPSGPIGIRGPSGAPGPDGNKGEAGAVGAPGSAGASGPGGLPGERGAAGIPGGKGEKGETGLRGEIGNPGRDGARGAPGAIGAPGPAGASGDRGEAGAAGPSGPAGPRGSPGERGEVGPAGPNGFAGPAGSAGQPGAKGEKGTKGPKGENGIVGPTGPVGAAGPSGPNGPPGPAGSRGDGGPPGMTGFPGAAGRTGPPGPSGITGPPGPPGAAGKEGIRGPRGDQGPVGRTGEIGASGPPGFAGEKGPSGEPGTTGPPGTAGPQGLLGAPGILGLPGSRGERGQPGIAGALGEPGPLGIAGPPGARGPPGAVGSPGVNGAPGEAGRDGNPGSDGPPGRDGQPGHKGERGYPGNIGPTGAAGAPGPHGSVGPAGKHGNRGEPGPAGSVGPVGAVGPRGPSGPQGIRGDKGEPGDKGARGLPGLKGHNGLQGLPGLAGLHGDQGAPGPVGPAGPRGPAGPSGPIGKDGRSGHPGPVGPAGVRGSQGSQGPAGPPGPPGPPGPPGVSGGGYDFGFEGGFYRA

[2] = biological target: T1, Collagen I (Gibco), coated on 96-well plates (UniProt P02454 152-1207; P02466 86-1125); assay: as above; settings: both partners purified
T1 construct: collagen type I, alpha-1(I) chain; collagen type I, alpha-2(I) chain; the two chains and rat as species are surmised; also called native collagen; collagen type I; source: bought: Gibco (collagen I coated 96-well plates)
T1 sequence (P02454 152-1207, chain 1 of 2): as the sequence (P02454 152-1207, chain 1 of 2) above
T1 sequence (P02466 86-1125, chain 2 of 2): as the sequence (P02466 86-1125, chain 2 of 2, further chain) above

[3] = biological target: Collagen I (Gibco), coated on 96-well plates (UniProt P02454 152-1207; P02466 86-1125); assay: ELISA
Target sequence in this assay (P02454 152-1207, chain 1 of 2): as the sequence (P02454 152-1207, chain 1 of 2) above
Target sequence in this assay (P02466 86-1125, chain 2 of 2): as the sequence (P02466 86-1125, chain 2 of 2, further chain) above

[4] = biological target: T2, alternatively spliced extra-domain B (EIIIB) domain of fibronectin (Mus musculus (assumed; murine B16F10 …, UniProt P11276); assay: not stated; Kd for EIIIB printed in the discussion; Supplementary Fig. 18b is pointed to
T2 construct: fibronectin, alternatively spliced EIIIB (extra-domain B) domain; also called FN-EIIIB

LAIR-LAIR-MSA^H464Q-IL2-his (from UniProt Q8BG84 22-144; Q8BG84 22-144)
Kd [1]: 13 nM

LAIR-IL2-his (from UniProt Q8BG84 22-144)
Kd [1]: 220 nM

B1: LAIRx-IL2-his (other)
chain: QEGSLPDITIFPNSSLMISQGTFVTVVCSYSDKHDLYNMVALAKDGSTFMEKSTEPYKTEDEFEIGPVNETITGHYSCIYSKGITWSERSKTLELKVIKENVIQTPAPGPTSDTSWLKTYSIYAPTSSSTSSSTAEAQQQQQQQQQQQQHLEQLLMDLQELLSRMENYRNLKLPRMLTFKFYLPKQATELKDLQCLEDELGPLRHVLDLTQSKSFQLEDAENFISNIRVTVVKLKGSDNTFECQFDDESATVVDFLRRWIAFCQSIISTSPQ
Kd [2]: > 1000 nM

B2: LAIRx-LAIRx-MSA^H464Q-IL2-his (other)
chain: QEGSLPDITIFPNSSLMISQGTFVTVVCSYSDKHDLYNMVALAKDGSTFMEKSTEPYKTEDEFEIGPVNETITGHYSCIYSKGITWSERSKTLELKVIKENVIQTPAPGPTSDTSWLKTYSIYQEGSLPDITIFPNSSLMISQGTFVTVVCSYSDKHDLYNMVALAKDGSTFMEKSTEPYKTEDEFEIGPVNETITGHYSCIYSKGITWSERSKTLELKVIKENVIQTPAPGPTSDTSWLKTYSIYEAHKSEIAHRYNDLGEQHFKGLVLIAFSQYLQKCSYDEHAKLVQEVTDFAKTCVADESAANCDKSLHTLFGDKLCAIPNLRENYGELADCCTKQEPERNECFLQHKDDNPSLPPFERPEAEAMCTSFKENPTTFMGHYLHEVARRHPYFYAPELLYYAEQYNEILTQCCAEADKESCLTPKLDGVKEKALVSSVRQRMKCSSMQKFGERAFKAWAVARLSQTFPNADFAEITKLATDLTKVNKECCHGDLLECADDRAELAKYMCENQATISSKLQTCCDKPLLKKAHCLSEVEHDTMPADLPAIAADFVEDQEVCKNYAEAKDVFLGTFLYEYSRRHPDYSVSLLLRLAKKYEATLEKCCAEANPPACYGTVLAEFQPLVEEPKNLVKTNCDLYEKLGEYGFQNAILVRYTQKAPQVSTPTLVEAARNLGRVGTKCCTLPEDQRLPCVEDYLSAILNRVCLLQEKTPVSEHVTKCCSGSLVERRPCFSALTVDETYVPKEFKAETFTFHSDICTLPEKEKQIKKQTALAELVKHKPKATAEQLKTVMDDFAQFLDTCCKAADKDTCFSTEGPNLVTRCKDALAAPTSSSTSSSTAEAQQQQQQQQQQQQHLEQLLMDLQELLSRMENYRNLKLPRMLTFKFYLPKQATELKDLQCLEDELGPLRHVLDLTQSKSFQLEDAENFISNIRVTVVKLKGSDNTFECQFDDESATVVDFLRRWIAFCQSIISTSPQ
Kd [2]: > 1000 nM

B3: LAIR-LAIRx-MSA^H464Q-his (other)
chain: QEGSLPDITIFPNSSLMISQGTFVTVVCSYSDKHDLYNMVRLEKDGSTFMEKSTEPYKTEDEFEIGPVNETITGHYSCIYSKGITWSERSKTLELKVIKENVIQTPAPGPTSDTSWLKTYSIYQEGSLPDITIFPNSSLMISQGTFVTVVCSYSDKHDLYNMVALAKDGSTFMEKSTEPYKTEDEFEIGPVNETITGHYSCIYSKGITWSERSKTLELKVIKENVIQTPAPGPTSDTSWLKTYSIYEAHKSEIAHRYNDLGEQHFKGLVLIAFSQYLQKCSYDEHAKLVQEVTDFAKTCVADESAANCDKSLHTLFGDKLCAIPNLRENYGELADCCTKQEPERNECFLQHKDDNPSLPPFERPEAEAMCTSFKENPTTFMGHYLHEVARRHPYFYAPELLYYAEQYNEILTQCCAEADKESCLTPKLDGVKEKALVSSVRQRMKCSSMQKFGERAFKAWAVARLSQTFPNADFAEITKLATDLTKVNKECCHGDLLECADDRAELAKYMCENQATISSKLQTCCDKPLLKKAHCLSEVEHDTMPADLPAIAADFVEDQEVCKNYAEAKDVFLGTFLYEYSRRHPDYSVSLLLRLAKKYEATLEKCCAEANPPACYGTVLAEFQPLVEEPKNLVKTNCDLYEKLGEYGFQNAILVRYTQKAPQVSTPTLVEAARNLGRVGTKCCTLPEDQRLPCVEDYLSAILNRVCLLQEKTPVSEHVTKCCSGSLVERRPCFSALTVDETYVPKEFKAETFTFHSDICTLPEKEKQIKKQTALAELVKHKPKATAEQLKTVMDDFAQFLDTCCKAADKDTCFSTEGPNLVTRCKDALA
Kd [3]: 158 nM

B4: LAIR-LAIR-MSA^H464Q-his (other)
chain: B3 chain with A164R, A166E
Kd [3]: 20 nM

B5: NJB2-MSA^H464Q-IL2 (VHH)
VHH: QVQLVETGGGLVQAGGSLRLSCAASGSTFSHNAGGWYRQAPEKQRELVAGISSDGNINYADSVKDRFTISRDNASNTMYLQMNNLKPEDTAVYVCNIRGSYGNTYYSRWGQGTQVTVSS
notes: nanobody NJB2 (15 kD); mouse serum albumin (MSA) with H464Q; interleukin-2 (IL-2); 98 kD; MSA^H464Q incorporated between the nanobody and IL-2; source: suspension HEK293, transfected, purified
Kd [4]: 1 nM
